Assay results: patent US20050159352A1, “Use of monocarboxylate transporter protein for thyroid hormone transport” (priority 2002, published 2005)

Substrate: N[C@@H](Cc1ccc(Oc2cc(I)c(O)c(I)c2)c(I)c1)C(=O)O
Assay: cells, lysate or membranes
Settings: other: net MCT8 transport, Michaelis-Menten analysis
Protocol: Apparent Km values were calculated by fitting the plot of uptake rate (v) versus ligand concentration (5) to the Michaelis Menten equation: v=Vmax/(1+Km/S), wherein Vmax is the maximum uptake rate, and Km the Michaelis constant. Calculations were performed using the Slide Write Plus program version 5.01 (Advanced Graphics Software).

B1: MCT8 (Rattus norvegicus; G227D/I169T/S199P/T171I) (protein)
chain: MALPSPASEEAEGPCQEANQEYQEPVCSPVPEPEPEPEPEPEPEPEPVPVPPPEPQPEPEPQPLPDPAPLPVLGFEAEPVQEPEPTPTVETRGTARGFQPPEGGFGWIVVFAATWCNGSIFGIHNSVGILYSMLLEEEKEKNRQVEFQAAWVGALAMGMIFFCSPIVSTFIDRLGCRITATTGAAVAFIGLHTSSFTSPLSLRYFTYGILFGCGCSFAFQPSLVILDHYFQRRLGLANGVVSAGSSIFSMSFPFLIKMLGDRIKLAQTFQVLSTFMFVLTLLSLTYRPLLPSSQDTPSKRGAHTLRQRFLVQFRKYFNMRVFRQRTYRIWAFGIAAAALGYFVPYVHLMKYVEDKFKEIKETWVLLVCIGATSGLGRLVSGHISDSIPGLKKIYLQVLSFLLLGLMSMMIPLCRDFGGLIVVCLFLGLCDGFFITIMAPIAFELVGPMQASQAIGYLLGMMALPMIAGPPIAGLLRNCFGNYHVAFYFAGVPPIIGAVILFFVPLMHQRMFKKEQRESSKDKMLSHDPDPNGELLPGSPTPEEPI
  Km: 2.2 µM
